Data taken from the DeepSol protein solubility set.

assay: soluble on expression in E. coli; label from the status in PepcDB or PDB records

**Q.** With “SAYIHIPFCEHICHYCDFNKYFIQSQPVDEYLNALEQEMINTIAKTGQPDLKTIFIGGGTPTSLSEEQLKKLMDMINRVLKPSSDLSEFAVDANPDDLSAEKLKILKEAGVNRLSFGVQTFEDDLLEKIGRVHKQKDVFTSFERAREIGFENISLDLMFGLPGQTLKHLEHSINTALSLDAEHYSVYSLIVEPKTVFYNLMQKGRLHLPPQEQEAEMYEIVMSKMEAHGIHQYEISNFAKAGMESKHNLTYWSNEQYFGFGAGAHGYIGGTRTVNVGPVKHYIDLIAEKGFPYRDTHEVTTEEQIEEEMFLGLRKTAGVSKKRFAEKYGRSLDGLFPSVLKDLAEKGLIHNSES” as the sequence, how does the “soluble on expression in E. coli” value read?
**A.** not soluble

**Q.** Which “soluble on expression in E. coli” value does the source give for “SQNNEIIKPAKYFSELEKSILLALVEKYKYVLECKKSDARTIALKQRTWQALAHEYNSQPSVSLRDFKQLKKCWENIKARTKKIMAHERREKVKRSVSPLLSTHVLGKEKIASMLPEQLYFLQSPPEEEPEYHPDASAQESFAVSNRELCDDEKEFIHFPVCEGTSQPEPSCSAVRITANKNYRSKTSQEGALKKMHEEEHHQQMSILQLQLIQMNEVHVAKIQQIERECEMAEEEHRIKMEVLNKKKMYWERKLQTFTKEWPVSSFNRPFPNSP” here?
**A.** soluble

**Q.** With “SNAMNVIRLKEDKFREALRLSEYAFQYKVDEDRLQQQITKMKESHEVYGIMEGENLAAKLHLIPFHIYIGKEKFKMGGVAGVATYPEYRRSGYVKELLQHSLQTMKKDGYTVSMLHPFAVSFYRKYGWELCANLLVCHMTKSDLVMKKQVNGTVKRFNKESHPEEVEKLYETFAELFSGMLVRNEKWWLQAVYDDLTLAIYYDENQTAAGYMLYKIENYKMTVEEFVPLHNEARNGLWNFICQHDSMIKDLEMTVSENEPLLYTLQEPRVKTEIKPYFMGRIVDVEQFLKQYELNWNNVQQEVILHITDSFAQWNNITVRIANHEITIIEEPIDKGIKLDINALSTILFGYRRPLELNELELISGSEEEIRAFESVVPVRKPFIYDFF” as the sequence, how does the “soluble on expression in E. coli” value read?
**A.** soluble

**Q.** Which “soluble on expression in E. coli” value does the source give for “MTPLERYQADLQRPDFFHDAAQANAVKHLQRLYDDLVAADHAKPGLFGKLLGRKSGGPVKGLYFWGGVGRGKTYLVDTFFESLPFEQKVRTHFHRFMKRVHEELKTLKGEKNPLTIIGKRFADEARVICFDEFFVSDITDAMILATLLEELFKNGVSLVATSNIVPDGLYKDGLQRARFLPAIALLKEHTEIVNVDSGVDYRLRALEQAELFHWPLSEQVEEEMARSFKALTPDCAKAQRDEALMIENREIRARLTCDDVAWFEFRELCDGPRSQNDYIELAKIFHAVLISNVEQMGVTKDDMARRFINLVDEFYDRSVKLIISAEVELKDLYSGGRLEFEFQRTLSRLLEMQSHEYLTRPHRPAAALEHHHHHH” here?
**A.** not soluble

**Q.** With “MGSDKIHHHHHHMSLITDLPAIFDQFSEARQKGFLTVMDLKEQNVPLVGTYCTFMPQEIAMAAGAVVVSLCSTSDETIEEAEKDLPRNLCPLIKSSYGFGKTDKCPYFYFSDLVVGETTCDGKKKMYEYMAEFKAVHVMQLPNSASDAASRALWKTEILRLQQVIEARFGTPISEAALREAIVLKNRERRALAHFYRLGQLNPPALSGGDILKVVYGATFRFDKTALIDELHAMAERIHQEWQQGKRLEPRPRILITGCPIGGAAEKVVRAIEENGGWVVGYENCTGAKATERCVAEEGDVYDALTDKYLAIGCSCISPNDQRLQLLSQMVEEYQADGVIDVILQACHTYAVESLAIKRHLRQQHDLPYMAIETDYSTADLGQLSTRVAAFIEML” as the sequence, how does the “soluble on expression in E. coli” value read?
**A.** not soluble

**Q.** Which “soluble on expression in E. coli” value does the source give for “MAHHHHHHMRSPASEGDCGVRLRVSWREGKQRALTDELDAKHQSDPYETLQTSDRKVFVSNTAAGAGRLLTDPQVHADDKGFSTYLRERLLVRVLPEGQKCVCGADASNEHVHTCTRLQQNPRTTRHEMISMTFANGLRLCGFQCGMEPRLTEASRRRPDILIVGLDTYAITDVTVTYAGRVTAYVSEESMEEADPLRAARDRLTQKRQKYRHWALANGLDFEPFVMLTNGAIHPAIRRWLRRILGARVLAYAGAQWVAERQ” here?
**A.** soluble

**Q.** Which “soluble on expression in E. coli” value does the source give for “MDNLLNEKKLTIFTSNEIQDNLNRVLKDYEQNGIIGLNGYLNQANRISLLNELEIMQKDAEQDIARYWNNKIIHFYSKDPLKPESVDREYVTEPYFQASSNKAHVFYEVIDNMRVVNRIGHGMHLINRYPMMQRAVYDSPVLLDLLKGIGFKKPICHLSVYIPKYPNGIGSEVRPHQESTFAFTEPQSVVVLWVALEDALIENACMYGVLGSNHWPLKWVSKVDRETKTRHFEQVHQLHIPDFMTEREFYTALEVKAGDALLFHGNFVHCSPMNTSKNSRKALSFQFIETYEVDYPETNWLYPPNKVYLYLEHHHHHH” here?
**A.** not soluble

**Q.** Which “soluble on expression in E. coli” value does the source give for “MAGDPMYKIGIDVGGTNTDAVILDHQLNLIHSVKVPTTDDIQTGIAGALNKVLAESAVDPTKVTHAMLGTTQCTNAIVERKKLAKVGVLRLGYPATASVLPYTAWPKDLVATLSETYALAHGGYEYDGQPLTALDEEELRGILASWRGEVEAIAVIGVFSSLKNDQELFVQALAKEVLGADVPVSCSSMIGSVGLIERENATILNAALHKVIKVTSEGFEQALEQEKIHHAQVYLCQNDGTLMSLTYAKQFPILTIACGPTNSIRGASYLAGLKDAVVLDVGGTTSDIGVLVDGFPRESSLAVDVGGVRTNFRMPDIVSIGVGGGSLVREQPDGSVTVGPDSVGYRITQEALVFGGTQLTTTDIAVRLGHAQVGDPSKVAHLDQAFAEKVYQKIGELVSEAIDRMKTSSADVTVVLVGGGSIIIPEELTGVKALIRNKNGAVANAIGASIAQISGQYEQIYVYSKIQRDAALTDAQEKAVQQAELAGAVPGTIELVEVEETPLAYHPENATRLRVKVVGNMYLEHHHHHH” here?
**A.** soluble

**Q.** For “VEAHPSLTLFSQLRIEHEDMAIAEDDWAWLRHKGHLRLGAALDETSPFNVRLDDENYEGITADVATLVGQLLGMRIKVVSFDTHADAVAALAAGKIDLLGSHYSSAGDSSLVLSQPYARDRLAVFKRMGEKRNSPEDLAGLSVAVAREHVGELRQRFPRARFVVFGSHDEAVAAVAFGHTDLYLDDVLSAYHRINRSYYGYVRFERFADARLEGGYGFLLRRGDTNLLRVVNSAIGAINQDRLESIARRWVGSGSLPTGQRIALTPQESRWIARHPVVRLVINDDLAPLAFFNSDETFSGIASDLLDMISRRTGLHFQVTPRSGGFPEQIGVLARKEADLAIMSRSSKREEMLRFTRSFLSTSYVLVTRADDKGRAEIPGSLDGKRIAIPAGHVGMQQVRERYPQASMVEVGVALDAMNLVYEGRADAAVVPLVTARYYIVRLFRERLAIADLVPIGAATAHFAVRRGDAELQSILDKALLSISPDDLSDIVNRWRSPPGMSGQT”, which “soluble on expression in E. coli” value is on record?
**A.** soluble

**Q.** With “MANAYKQAGVDIEAGYEAVSRMKKHVQTTMRKEVLGGLGGFGGMFDLSKFALEEPVLVSGTDGVGTKLMLAFMADKHDTIGIDAVAMCVNDIVVQGAEPLFFLDYIACGKAEPSKIENIVKGISEGCRQAGCALIGGETAEMPGMYSTEEYDLAGFTVGIVDKKKIVTGEKIEAGHVLIGLASSGIHSNGYSLVRKVLLEDGELSLDRIYGRLELPLGEELLKPTKIYVKPILELLKNHEVYGMAHITGGGFIENIPRMLPEGIGAEIELGSWKIQPIFSLLQEVGKLEEKEMFNIFNMGIGMVVAVKEEDAKDIVRLLEEQGETARIIGRTVQGAGVTFNGGKAL” as the sequence, how does the “soluble on expression in E. coli” value read?
**A.** soluble

**Q.** Which “soluble on expression in E. coli” value does the source give for “GPLGSGEEEPLPPRWSMQVAPNGRTFFIDHASRRTTWIDPRNGRAS” here?
**A.** soluble

**Q.** Which “soluble on expression in E. coli” value does the source give for “MGSDKIHHHHHHMKYFVSRSIYTFNSGVEHSQANRTLLFNASGDQARYVTRDYNRLWVRDAERVNLNSTNVLNMYDFFQGTSAVECVQLPVREFKQLALNEYQLVEHGADYSTVDHAGRQLARINIMPGTVGLVGDIEYYDRFETVVSRENFDWRGFKSSIDYFHPDGSLGVRRFLNLAGEVVLENTYMNVEGQLQPTMWKLVNYHGKNYRFDTEDQLFLFFLNEVTQQTTDNVVVSDHRELDYVIADVENATSKWVALHGSHVDQGGTPFAAYSIALQIRAQDFDGIIVPTQEQQLELKEQFPELNVQVAPDVAISPELINSKPVWLRDRIAGRIIFSGRLEADKRPMEALKAFFKVLEQFLTLRWNLGDILTTKTC” here?
**A.** not soluble

**Q.** Which “soluble on expression in E. coli” value does the source give for “MLRRGYKASERRRHLSERLSWHQDQALSSSIYLLREMGPTGFLLREEEPEYMDFRVFLGNPHVCNCSTFPKGGELCKHICWVLLKKFELPRNHESALQLGLGEREISDLLRGIHRVQTPQPGTNDENEHVEEDGYIKQKEIDSEDICSICQELLLEKKLPVTFCRFGCGNSIHIKCMKILANYQSTSNTSMLKCPLCRKEFAPLKLILEEFKNSSKLVAAAEKERLDKHLGIPCNNCKQFPIEGKCYKCTECIEYHLCQECFDSYCHLSHTFTFREKRNQKWRSLEKRADEVVKYIDTKNETEEKMSHFQEKQGQVYTPKHIVRSLPLQLITKNSKLLAPGYQCLLCLKAFHLGQHTRLLPCTHKFHRKCIDNWLFHKCNSCPIGGQVIYNPLTWKNSAVNGQAHQSVSNRDIIHLSKQKEPDLFIPGTGLVLKQNRLGILPSIPQCNFDELNTPQSPKDAYENTTIDNLCSIKLDNSNSKKLTYEYKISQHFPRYLQDLPTVSFGKIPSQTLLPPIVHKNIVCPTAMESPCISGKYHTSLSRVTKGCKCNNHNLKKTPATKIREDNKRSTLLPEDFNLIVNWSTAKLSLSKRYSNCMGEITRKCSHLSRQPVSHSVNTKSTELSLIIEGVQL” here?
**A.** soluble

**Q.** Which “soluble on expression in E. coli” value does the source give for “MGSDKIHHHHHHMMNKREQDYWIFSVELRESKVSEENGKSIVITPLGLSAKRILIAGTVSSKQSDDRMARISLADPIGSFYVTAFSGGFNPEEKAMVDSLEVDDKAMVMGKINPYRTSEGVYLFSIRPELVSKTGEDALRLWTLKAYYFAKRRIYAIREAQKLQDPKADELISLGYSRVEAEAAISSIKNFPGYDYQRILEAIETAIYSVSTPTQLPEVRSKILNYIKENDTDGKGCKYEDIVIAAKNMGIDQSTTDEILNTLGSSGEIFEISLKRYKAVEPE” here?
**A.** not soluble

**Q.** With “MGSDKIHHHHHHMKKVTLLVLDGFGVGAMADCEKVKPEDVNANTYKHLREAVDIHIPTLYQLGLGNIVDHLDTARAAYGRCDLAHHGADTFMGHQELMGSKPGVPQKRLMSEVGATIKKNLEKHGYDVRDPVEGAPVLLVNEAVVVGDNLESEVGNIINVVGDFRKLSFEQTIEVGKVVRSSVDTSRVIVYGNKEKTSIDLILSTIKERHPGQWGVDSPKANVYGEGYQVLHLGYGVDYEKQFAHLAEKQRLPVYRIGKTADVIQASGYHNPVVSTRKVLEVYQHEYSKSERDSVFLVNVQETDLAGHKEDCLWYKEVIEEVDRFLASFIDELDEEDLLIITADHGNDPTIGHSNHTREQTPVIIVGPQVRPISIGTRQTMADLAATMADYMGVAPPQYGTSFLHQILR” as the sequence, how does the “soluble on expression in E. coli” value read?
**A.** not soluble

**Q.** Which “soluble on expression in E. coli” value does the source give for “PVNTKRSNGTKRVEFPTTKKSMCIGNSTPNEQETFRAKVDEIWFRLTQKTDGTVMRDFLIEKAAEYFKQPEQPKQNAIEVISAIMAPQEEQTKSKADLYKFLAMFGPYETIMLKIASLLLISNNKGHWLTFDPQAEKNANNQRDSISGWFDQNEPNCLILKTPTGIRKIWNKPLIEATGQYLMDENGEKYDSWDKYFEMKPIETYLTAYPTFAPMHHHHHH” here?
**A.** soluble

**Q.** For “QEAQANTESEKRRLDSVITHMSDGILATDRRGRVRIANDMALKMLGLAKEDVIGYYMLGVLNLENEFSLEEIQENSDSFLLDINEEEGIIARVNFSTIVQETGFVTGYIAVLHDVT”, which “soluble on expression in E. coli” value is on record?
**A.** not soluble

**Q.** Which “soluble on expression in E. coli” value does the source give for “SVPIVSAWEKGMEAARALMDKYHVDNDLKANFKLLPDQVEALAAVCKTWLNEEHRGLQLTFTSNKTFVTMMGRFLQAYLQSFAEVTYKHHEPTGCALWLHRCAEIEGELKCLHGSIMINKEHVIEMDVTSENGQRALKEQSSKAKIVKNRWGRNVVQISNTDARCCVHDAACPANQFSGKSCGMFFSEGAKAQVAFKQIKAFMQALYPNAQTGHGHLLMPLRCECNSKPGHAPFLGRQLPKLTPFALSNAEDLDADLISDKSVLASVHHPALIVFQCCNPVYRNSRAQGGGPNCDFKISAPDLLNALVMVRSLWSENFTELPRMVVPEFKWSTKHQYRNVSLPVAHSDARQNPFDF” here?
**A.** soluble
